Here are results for two substances from PMC2567903.

One experiment deals with EspFU R′4-5 (UniProt P0DJ88). The experiment is described as follows: ITC.
The target of a further experiment is EspFU R′1-5 (UniProt P0DJ88). The experiment is described as follows: ITC.
A further experiment has as its target EspFU R′5 (UniProt P0DJ88). The experiment can be described thus: ITC.
The target of experiment [1] is N-WASPC in complex with Alexa647-labeled EspFU R′5 (UniProt O08816). The experiment is described as follows: SEC.
Chain of N-WASPC in complex with Alexa647-labeled EspFU R′5 (O08816 193-501, chain 1 of 2): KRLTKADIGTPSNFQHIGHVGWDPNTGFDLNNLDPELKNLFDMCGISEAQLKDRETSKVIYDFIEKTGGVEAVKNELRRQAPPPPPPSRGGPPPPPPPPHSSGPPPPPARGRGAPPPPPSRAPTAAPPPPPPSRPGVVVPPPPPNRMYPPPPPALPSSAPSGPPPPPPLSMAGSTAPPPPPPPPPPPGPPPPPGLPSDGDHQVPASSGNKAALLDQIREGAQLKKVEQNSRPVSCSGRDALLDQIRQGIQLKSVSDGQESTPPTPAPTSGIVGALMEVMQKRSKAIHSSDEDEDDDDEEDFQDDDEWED
Chain of N-WASPC in complex with Alexa647-labeled EspFU R′5 (P0DJ88 221-267, chain 2 of 2, further chain): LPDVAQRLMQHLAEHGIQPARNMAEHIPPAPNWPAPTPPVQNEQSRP

Chain of WASP GBD (residues 242–310) (P42768 242-310): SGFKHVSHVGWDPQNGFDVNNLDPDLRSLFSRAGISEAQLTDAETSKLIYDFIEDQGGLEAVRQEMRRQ
Chain of EspFU R′5 (P0DJ88 221-267): as the sequence (P0DJ88 221-267, chain 2 of 2, further chain) above
Chain of EspFU R′4-5 (P0DJ88 221-314): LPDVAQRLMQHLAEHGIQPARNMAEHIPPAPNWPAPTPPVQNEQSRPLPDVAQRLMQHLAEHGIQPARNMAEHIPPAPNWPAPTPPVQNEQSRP
Chain of EspFU R′1-5 (P0DJ88 80-314): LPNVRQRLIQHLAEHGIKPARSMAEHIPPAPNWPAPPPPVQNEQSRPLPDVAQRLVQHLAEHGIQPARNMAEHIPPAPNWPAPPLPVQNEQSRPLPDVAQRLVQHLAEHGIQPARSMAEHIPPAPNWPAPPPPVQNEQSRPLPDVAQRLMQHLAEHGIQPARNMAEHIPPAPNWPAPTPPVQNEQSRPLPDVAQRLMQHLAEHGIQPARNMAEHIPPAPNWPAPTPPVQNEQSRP

“WASP GBD (residues 242–310) (from UniProt P42768 242-310) (domain or fragment)”: the dissociation constant (Kd) with EspFU R′4-5 was determined as 0.095 µM; with EspFU R′1-5, 0.083 µM; in the experiment with EspFU R′5, 0.089 µM. In addition, the figures for the stoichiometry N in the experiment with EspFU R′4-5, in the experiment with EspFU R′1-5 and with EspFU R′5 were 1.8, 5.7 and 1, respectively.

Take Arp2/3 complex: in experiment [1], the percent of the EspFU shifted into the EspFU-N-WASP-Arp2/3 complex stood at 60%.
